The target in assay [1] is human Complement Factor D (CFD), purified from human serum (human, UniProt P00746 26-253). In words: cell-based or functional assay.
For another assay, the target named is Histidine-tagged FcγRI (UniProt P12314 16-288, limits assumed). The assay can be described thus: SPR (Biacore T200, 25 C), His-tagged FcγRI captured on anti-His CM5 chip, antibody injected, single cycle kinetics. (SPR reads the build-up and loss of mass on a sensor chip optically.)
The target of a further assay is T1, purified human C1q (human, UniProt P02745 23-245; P02746 28-253; P02747 29-245).
T1 construct: also called Complement C1q
In words: ELISA, antibody coated in a 1:2 titration from 10 ug/mL, purified human C1q at 5 ug/mL, HRP anti-human C1q. In general terms: In an ELISA, binding on a coated surface is turned into a signal by an enzyme label.

Assay [2] addresses Histidine-tagged FcγRIIIa (UniProt P08637 17-208, limits assumed). The assay can be described thus: SPR (Biacore T200, 25 C), His-tagged FcγRIIIa captured on anti-His CM5 chip, antibody injected, single cycle kinetics.
Method: For Fcγ receptor Binding Kinetics on Biacore, all binding kinetics were performed at 25° C. using a BIAcore T200. Briefly, an anti-his antibody was immobilized on a CM5 chip. Histidine-tagged FcγRI (FIG. 15A and FIG. 15B) and FcγRIIIa (FIG. 16A and FIG. 16B) at a concentration of 0.5 μg/mL prepared in HBS-EP buffer (0.01M HEPES pH7.4, 0.15M NaCl, 3 mM EDTA, 0.005% Tween-20) were injected independently for 60-s using a flow rate of 5 μL/min in the active flow cell only. […] Following each run, flow cells were regenerated with a 60 s injection of 10 mM glycine pH 1.7 using a flow-rate of 50μ/mL. Data was double referenced, using subtraction of both reference flow cell and blank cycles. Analysis was performed using BIA evaluation software.
The target of assay [3] is T2, serum purified human Complement Factor D (human, UniProt P00746 26-253).
T2 construct: Serum purified protein flowed over the captured antibodies; also called CFD; human CFD
In words: SPR Biacore, antibody on protein A chip, single cycle kinetics, 25 C; earlier run in the table (r34, Rmax 14.8).
Method: (§1) Antibodies were diluted to 0.5 ug/ml in HBS-EP+ buffer and captured on a protein A chip for 25 seconds to reach approximately 70 resonance units. […] Binding kinetic information was obtained by the BIAevaluation software (GE).

Assay [4] has as its target T2, serum purified human Complement Factor D. In words: SPR Biacore, antibody on protein A chip, single cycle kinetics, 25 C.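 Note: antibodies captured to roughly 70 RU on the protein A surface in HBS-EP+ running buffer, with kinetic constants derived by BIAevaluation fitting.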
Method: as §1
Assay [5] has the same target. In words: SPR Biacore, antibody on protein A chip, single cycle kinetics, 37 C; earlier run in the table (r34, Rmax 17.1).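 Note: antibodies captured on the protein A surface to roughly 70 RU in HBS-EP+ buffer, with rate and affinity constants fitted using BIAevaluation software.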
Method: as §1
Assay [6] shares this target. In words: SPR Biacore, antibody on protein A chip, single cycle kinetics, 37 C.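 Note: antibodies captured on the protein A surface to roughly 70 RU in HBS-EP+ buffer, with rate and affinity constants fitted using BIAevaluation software.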
Method: as §1

Several values for one entry are separate records, joined by “and”; a condition that tells them apart may be missing. Equal values may be shown once.

T2 sequence (P00746 26-253): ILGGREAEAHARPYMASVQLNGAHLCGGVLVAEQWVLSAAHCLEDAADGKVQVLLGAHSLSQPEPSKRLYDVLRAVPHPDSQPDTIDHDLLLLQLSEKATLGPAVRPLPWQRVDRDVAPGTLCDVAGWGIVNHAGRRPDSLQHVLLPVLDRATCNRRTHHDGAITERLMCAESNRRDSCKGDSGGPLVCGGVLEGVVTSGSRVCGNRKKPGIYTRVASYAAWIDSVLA
human Complement Factor D (CFD), purified from human serum, sequence (P00746 26-253): as above
T1 sequence (P02745 23-245 limits assumed, chain 1 of 3): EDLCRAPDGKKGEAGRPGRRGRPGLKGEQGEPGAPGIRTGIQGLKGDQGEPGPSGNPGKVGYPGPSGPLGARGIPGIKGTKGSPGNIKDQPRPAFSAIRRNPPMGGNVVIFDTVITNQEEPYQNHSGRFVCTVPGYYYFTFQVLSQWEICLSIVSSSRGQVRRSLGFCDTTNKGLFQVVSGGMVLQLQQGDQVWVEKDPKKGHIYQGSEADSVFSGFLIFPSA
T1 sequence (P02746 28-253 limits assumed, chain 2 of 3): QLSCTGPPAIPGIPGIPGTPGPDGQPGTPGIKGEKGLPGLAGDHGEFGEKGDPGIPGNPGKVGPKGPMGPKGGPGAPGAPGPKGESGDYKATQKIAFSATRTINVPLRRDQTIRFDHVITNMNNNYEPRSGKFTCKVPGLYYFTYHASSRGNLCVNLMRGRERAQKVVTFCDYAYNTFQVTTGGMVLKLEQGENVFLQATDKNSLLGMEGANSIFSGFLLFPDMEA
T1 sequence (P02747 29-245 limits assumed, chain 3 of 3): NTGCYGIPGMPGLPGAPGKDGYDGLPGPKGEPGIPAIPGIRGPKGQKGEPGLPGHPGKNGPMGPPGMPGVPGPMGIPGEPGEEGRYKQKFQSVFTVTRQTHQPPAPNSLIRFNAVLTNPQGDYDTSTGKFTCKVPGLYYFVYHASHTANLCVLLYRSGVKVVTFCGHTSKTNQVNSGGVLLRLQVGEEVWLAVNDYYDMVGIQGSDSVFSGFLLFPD
Histidine-tagged FcγRI, sequence (P12314 16-288 limits assumed): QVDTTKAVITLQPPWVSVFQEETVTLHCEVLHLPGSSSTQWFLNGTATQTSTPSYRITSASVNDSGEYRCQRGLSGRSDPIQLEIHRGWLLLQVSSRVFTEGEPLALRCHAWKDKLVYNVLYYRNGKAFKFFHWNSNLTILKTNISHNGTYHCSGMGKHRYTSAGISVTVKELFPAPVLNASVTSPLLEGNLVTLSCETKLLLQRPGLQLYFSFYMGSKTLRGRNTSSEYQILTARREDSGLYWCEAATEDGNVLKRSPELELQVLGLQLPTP
Histidine-tagged FcγRIIIa, sequence (P08637 17-208 limits assumed): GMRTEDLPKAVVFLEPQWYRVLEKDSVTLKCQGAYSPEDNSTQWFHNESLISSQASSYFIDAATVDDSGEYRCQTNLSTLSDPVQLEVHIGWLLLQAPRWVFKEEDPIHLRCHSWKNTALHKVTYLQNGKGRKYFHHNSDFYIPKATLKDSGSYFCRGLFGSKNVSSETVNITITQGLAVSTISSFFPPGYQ
Method for purified human C1q: Complement engagement liabilities was assessed by C1q ELISA binding. Briefly, antibody panel was titrated 1:2 from a top concentration of 10 ug/mL in 1×PBS for overnight coating at 4 C. Plates were then blocked After a 2 hour blocking step in 1% BSA, purified human C1q was then applied at 5 ug/mL in 1% BSA for 2 hours at room temperature followed by detection with HRP-conjugated anti-human C1q antibody and TMB development.

B1: OG1965 (antibody, IgG1)
heavy: EVQLVESGGGLVQPGGSLRLSCAASGYTFTDYYINWVRQAPGKGLEWIGDINPITGDTDYNADFKRRFTFSLDTSKSTAYLQMSSLRAEDTAVYYCTREGPSFAYWGQGTLVTVSSASTKGPSVFPLAPSSKSTSGGTAALGCLVKDYFPEPVTVSWNSGALTSGVHTFPAVLQSSGLYSLSSVVTVPSSSLGTQTYICNVNHKPSNTKVDKKVEPKSCDKTHTCPPCPAPEAAGAPSVFLFPPKPKDTLMISRTPEVTCVVVDVSHEDPEVKFNWYVDGVEVHNAKTKPREEQYNSTYRVVSVLTVLHQDWLNGKEYKCKVSNKALPAPIEKTISKAKGQPREPQVYTLPPSREEMTKNQVSLTCLVKGFYPSDIAVEWESNGQPENNYKTTPPVLDSDGSFFLYSKLTVDKSRWQQGNVFSCSVMHEALHNHYTQKSLSCSPGK
light: DIQLTQSPSSLSASVGDRVTITCRSSQTIVHSNGDTYLEWYQQKPGKAPNLLIRKVSNRFSGVPSRFSGSGSGTDFTLTISSLQPEDFATYYCFQGSHVPVTFGQGTKVEIKRTVAAPSVFIFPPSDEQLKSGTASVVCLLNNFYPREAKVQWKVDNALQSGNSQESVTEQDSKDSTYSLSSTLTLSKADYEKHKVYACEVTHQGLSSPVTKSFNRGEC
notes: humanized IgG1 kappa with L234A, L235A, G237A and L443C (EU); also called 34I54I59D84S/54R101V; 34I54I59D84S (heavy) / 54R101V (light)
As for B1, the “EC50, block of C3bB cleavage (Bb ELISA)” value in assay [1] is 1900 pM. Besides, in assay [1], the “EC50, block of Factor B cleavage (western blot)” value was determined as 7000 pM. Besides, the binding result was “no binding” in the assay with Histidine-tagged FcγRI, “no binding (tested: 10 ug/mL)” in the assay with purified human C1q and “no binding” in assay [2].

B2: 54I59D / 54G101V (antibody, V domains shown)
VH: EVQLVESGGGLVQPGGSLRLSCAASGYTFTDYYMNWVRQAPGKGLEWIGDINPITGDTDYNADFKRRFTFSLDTSKSTAYLQMNSLRAEDTAVYYCTREGPSFAYWGQGTLVTVSS
VL: DIQLTQSPSSLSASVGDRVTITCRSSQTIVHSNGDTYLEWYQQKPGKAPNLLIGKVSNRFSGVPSRFSGSGSGTDFTLTISSLQPEDFATYYCFQGSHVPVTFGQGTKVEIK
notes: KCD119 TAF variant; full antibody captured on protein A; also called 54I59D / 4G101V 5
A word on the Kd: it is the equilibrium constant for the complex coming apart. Low values mean higher affinity, high ones lower affinity. Usually koff stands for the first-order rate constant of dissociation. Broadly, the kon is the rate constant with which the complex forms. Higher therefore signals fast association. On to B2, for which the Kd in assay [3] is 8.33 pM; in assay [5], 7.74 pM. The koff in assay [4] amounted to 9.56e-05 s⁻¹. The kon in assay [4] was 1.15e+07 M⁻¹ s⁻¹ and 5.91e+06 M⁻¹ s⁻¹; in assay [6], 2.78e+07 M⁻¹ s⁻¹ and 1.36e+07 M⁻¹ s⁻¹.

The values are drawn from US20180334496A1 (KODIAK SCIENCES, published 2018).
